Target: Ptch1 variant △893-899/T903A/K904A/Q905A/N1000Q (human) (UniProt Q13635)
Test: not stated; Ptch1 variant alone or in complex with ShhNp; Supplementary Fig. 8c

With “Ptch1 variant △893-899/T903A/K904A/Q905A/N1000Q (from UniProt Q13635 1-1305) (receptor)” the stoichiometry N was 4.
